One test deals with T1, biotinylated hOX40L (human, UniProt P23510 51-183, limits assumed, biotinylated (sites not given)).
T1 construct: construct not described
T1 sequence: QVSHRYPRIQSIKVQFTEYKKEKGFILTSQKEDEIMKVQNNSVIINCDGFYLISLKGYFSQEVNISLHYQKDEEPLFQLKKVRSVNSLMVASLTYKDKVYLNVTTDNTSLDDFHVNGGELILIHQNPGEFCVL
The test is described as follows: blocking ELISA: biotinylated hOX40L preincubated with titrated antibody, added to coated hOX40-Fc, Extravidin-HRP. (In an ELISA, binding on a coated surface is turned into a signal by an enzyme label.)

In test [1] the target is T2, Recombinant Human OX40L Protein, His Tag (Acro Cat. IL3-H52H4) (human, UniProt P23510 51-183).
T2 construct: Bought His-tagged protein; also called hOX40L
T2 sequence: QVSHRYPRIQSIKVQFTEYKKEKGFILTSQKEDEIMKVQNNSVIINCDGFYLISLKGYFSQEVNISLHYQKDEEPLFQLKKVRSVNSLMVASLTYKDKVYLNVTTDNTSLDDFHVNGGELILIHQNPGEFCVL
The test is described as follows: SPR (Biacore 8K), antibody captured, human OX40L injected, 1:1 fit. The method, then: (§1) Samples were injected in a multi-cycle manner over freshly captured mAb, by regenerating the capture surfaces with injection of glycine pH 1.5 for 30 sec at a flow rate of 30 μL/min. The data was processed and analyzed with Biacore Insight Evaluation Software Version 2.0.15.12933 (GE Healthcare) as follows. […] The responses from the two buffer blank injections were then subtracted from the reference subtracted data (2-1) to yield double-referenced data, which were fit to an 1:1 binding model to determine the apparent association (ka) and dissociation rate constants (kd). Their ratio provided the apparent equilibrium dissociation constant or affinity constant (KD=kd/ka).
On the technique in general: SPR reads the build-up and loss of mass on a sensor chip optically.

For test [2], the target named is T3, hOX40L added as soluble protein in cell assays (human, UniProt P23510 51-183, limits assumed).
T3 sequence: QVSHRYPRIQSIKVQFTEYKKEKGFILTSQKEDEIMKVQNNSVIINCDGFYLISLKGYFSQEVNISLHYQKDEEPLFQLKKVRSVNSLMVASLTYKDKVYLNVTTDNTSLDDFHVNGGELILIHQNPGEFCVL
As to the kind of experiment: cell-based or functional assay.

Another test addresses cynomolgus FcRn (cynomolgus, UniProt Q8SPV9 24-297; Q8SPW0 21-119). The test is described as follows: SPR (Biacore 8K+), antibody captured by anti-human kappa, cynomolgus FcRn injected, pH 5.8; pH 5.8. The method, then: (§2) Briefly, a CM5 Series S sensor chip functionalized with anti-human kappa antibody was used to capture antibodies at 5 μg/mL. […] The chip was regenerated with 10 mM glycine pH 1.5 and 10 mM NaOH between runs.

The next test addresses T4, C1q.
T4 construct: also called Clq
As to the kind of experiment: SPR (Biacore 8K+), antibody captured by anti-human IgG Fc, C1q injected at 25 nM, mean response. As for the experimental part: Briefly, a CM5 Series S sensor chip functionalized with anti-human IgG Fc antibody was used to capture antibodies at 5 μg/mL. […] The chip was regenerated with 10 mM glycine pH 1.5 and 10 mM NaOH between runs.

For the next test, the target named is human FcRn (human, UniProt P55899 24-297; P61769 21-119). As to the kind of experiment: SPR (Biacore 8K+), antibody captured by anti-human kappa, human FcRn injected, pH 5.8; pH 5.8. The method, then: as §2
Sequence of human FcRn (P55899 24-297 limits assumed, form in doubt, chain 1 of 2): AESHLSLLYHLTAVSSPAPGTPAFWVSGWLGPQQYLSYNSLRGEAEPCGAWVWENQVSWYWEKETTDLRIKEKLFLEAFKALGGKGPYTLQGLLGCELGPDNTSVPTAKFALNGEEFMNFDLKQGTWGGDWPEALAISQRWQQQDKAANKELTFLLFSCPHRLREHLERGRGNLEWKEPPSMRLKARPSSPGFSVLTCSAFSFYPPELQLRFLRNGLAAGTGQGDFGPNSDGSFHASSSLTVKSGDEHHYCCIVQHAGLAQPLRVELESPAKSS
Sequence of human FcRn (P61769 21-119 limits assumed, form in doubt, chain 2 of 2): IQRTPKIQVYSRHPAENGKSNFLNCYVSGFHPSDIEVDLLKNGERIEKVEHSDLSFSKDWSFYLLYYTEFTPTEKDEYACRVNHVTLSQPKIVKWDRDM
The target in test [3] is T5, Recombinant Cynomolgus OX40L Protein, His Tag (SINO BIOLOGICAL, Cat. 11057-C07H) (cynomolgus, UniProt G7NVH7 51-183).
T5 construct: Bought protein
T5 sequence: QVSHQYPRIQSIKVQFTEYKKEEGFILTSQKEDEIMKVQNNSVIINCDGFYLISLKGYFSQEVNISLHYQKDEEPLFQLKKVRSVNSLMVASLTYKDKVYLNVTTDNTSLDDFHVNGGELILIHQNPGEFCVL
The test is described as follows: SPR (Biacore 8K), antibody captured, cynomolgus OX40L injected, 1:1 fit. As for the experimental part: as §1

Test [4] deals with T6, hOX40L on hOX40L-expressing CHO cells (human, UniProt P23510 1-183).
T6 construct: also called cell surface OX40L
T6 sequence: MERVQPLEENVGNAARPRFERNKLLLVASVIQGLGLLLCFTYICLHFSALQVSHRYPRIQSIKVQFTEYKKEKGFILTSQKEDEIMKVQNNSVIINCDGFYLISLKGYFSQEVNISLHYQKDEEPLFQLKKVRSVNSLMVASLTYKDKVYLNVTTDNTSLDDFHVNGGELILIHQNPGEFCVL
As to the kind of experiment: flow cytometry on hOX40L-expressing CHO cells, gMFI, nonlinear regression. As for the experimental part: Nonlinear regression was performed on geometric mean fluorescence intensity (gMFI) values to determine EC50 values (FIG. 1, TABLE 8).
(In general: Flow cytometry measures light scatter and fluorescence of single cells or particles in a stream.)

Sequence of cynomolgus FcRn (Q8SPV9 24-297 limits assumed, chain 1 of 2): as the sequence (P55899 24-297 limits assumed, form in doubt, chain 1 of 2) above, with N39D, E44Q, G99S, S189G, S190N, L217M, S269T counted along it
Sequence of cynomolgus FcRn (Q8SPW0 21-119 limits assumed, chain 2 of 2): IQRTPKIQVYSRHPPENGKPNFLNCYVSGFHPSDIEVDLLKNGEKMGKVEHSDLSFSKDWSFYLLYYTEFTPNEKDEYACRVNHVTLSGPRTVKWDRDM
T4 sequence (P02745 23-245, chain 1 of 3): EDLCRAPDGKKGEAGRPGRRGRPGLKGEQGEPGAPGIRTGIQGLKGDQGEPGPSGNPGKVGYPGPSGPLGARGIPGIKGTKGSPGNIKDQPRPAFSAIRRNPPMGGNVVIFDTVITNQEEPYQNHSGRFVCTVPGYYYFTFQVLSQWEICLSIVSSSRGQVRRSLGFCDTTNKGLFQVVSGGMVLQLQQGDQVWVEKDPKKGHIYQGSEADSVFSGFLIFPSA
T4 sequence (P02746 28-253, chain 2 of 3, further chain): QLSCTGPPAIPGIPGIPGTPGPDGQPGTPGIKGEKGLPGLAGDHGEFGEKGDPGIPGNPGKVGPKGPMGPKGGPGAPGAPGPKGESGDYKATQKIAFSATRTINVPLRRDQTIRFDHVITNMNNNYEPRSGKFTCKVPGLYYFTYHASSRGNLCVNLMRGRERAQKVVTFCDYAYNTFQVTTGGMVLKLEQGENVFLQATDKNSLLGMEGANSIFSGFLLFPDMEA
T4 sequence (P02747 29-245, chain 3 of 3, further chain): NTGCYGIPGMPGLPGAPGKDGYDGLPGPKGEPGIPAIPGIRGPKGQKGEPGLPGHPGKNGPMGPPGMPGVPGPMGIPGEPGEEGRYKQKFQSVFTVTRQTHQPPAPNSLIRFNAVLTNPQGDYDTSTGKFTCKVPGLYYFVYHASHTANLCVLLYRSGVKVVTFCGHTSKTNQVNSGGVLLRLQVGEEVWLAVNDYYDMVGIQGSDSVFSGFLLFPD

B1: anti-hOX40L antibody clone 128 (antibody, human IgG1, kappa, L234A L235A, V domains shown)
VH: EVQLVESGGGLVTPGGSLRISCAASGFTFNNAWMTWVRQAPGKGLEWVGRIKSISYGGTTDSAAPVKGRFTISRDDSENTLYLQMSSLKTEDTAVYYCSTGSVWKYGGSLDFWGQGTLVTVSS
VL: DIQMTQSPSSLSASVGDRVTFTCRASQGISRFLNWYQQKPGKAPKLLIYAASTLQNGVPSRFSGSGSGTDFTLTISSLQPEDFATYFCQQTYSTPLTFGGGTKVEIYR
Turning to B1, in the test with biotinylated hOX40L, the 50% inhibitory concentration (IC50) – broadly, the concentration that gives 50% inhibition – is 7.52 nM. Also, in test [1], the Kd (as a rule, the concentration at which binding is half-saturated) is < 0.00893 nM; the koff (usually a measure of how fast the partners let go of each other) is < 1e-06 s⁻¹; the kon – broadly, the rate constant with which the complex forms – turned out to be 112000 M⁻¹ s⁻¹.

B2: anti-hOX40L antibody clone 127 (antibody, human IgG1, kappa, L234A L235A, V domains shown)
VH: EVQLVESGGGFVKPGGSLRLSCAASGFTFSNAWMSWVRQAPGKGLEWVGRIKSNSYGGTTDYAAPAIGRFTISRDGSKSTLYLQMNSLKTEDTAVYYCTTDHPKFGFDFWGQGTLVTVSS
VL: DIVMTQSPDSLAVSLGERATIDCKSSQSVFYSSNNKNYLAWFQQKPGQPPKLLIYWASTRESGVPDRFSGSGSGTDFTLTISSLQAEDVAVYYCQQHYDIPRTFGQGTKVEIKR
Turning to B2, in test [1], the Kd came out at 1.11 nM, the koff stood at 0.00021 s⁻¹ and the kon was 189000 M⁻¹ s⁻¹. For the same molecule, in test [2], the “IC50, luminescence (RLU), hOX40 reporter cells with 50 ng/mL hOX40L” value (“IC50, luminescence (RLU)” for short) was determined as 1.72 nM.

B3: anti-hOX40L antibody clone 328 (antibody, human IgG1, kappa, L234A L235A)
heavy: QVQLQESGPGLVKPSQTLSLTCTVSGGSISSGGYYWSWIRQYPGKGLEWIGHIYYSGSTKYNPSLKSRLTISVDTSKNQFSLKLSSVTAADTAVYYCARDNWGSGWYYMDVWGKGTTVTVSSASTKGPSVFPLAPSSKSTSGGTAALGCLVKDYFPEPVTVSWNSGALTSGVHTFPAVLQSSGLYSLSSVVTVPSSSLGTQTYICNVNHKPSNTKVDKKVEPKSCDKTHTCPPCPAPEAAGGPSVFLFPPKPKDTLYITREPEVTCVVVDVSHEDPEVKFNWYVDGVEVHNAKTKPREEQYNSTYRVVSVLTVLHQDWLNGKEYKCKVSNKALPAPIEKTISKAKGQPREPQVYTLPPSRDELTKNQVSLTCLVKGFYPSDIAVEWESNGQPENNYKTTPPVLDSDGSFFLYSKLTVDKSRWQQGNVFSCSVMHEALHNHYTQKSLSLSPG
light: EIVLTQSPATLSLSPGERATLSCRASQSVSNYFAWYRQKPGQAPRLLIYDASNRATGIPARFSGSGSGTDFTLTISSLEPEDFAVYYCQHRSNWPLTFGGGTKVEIKRTVAAPSVFIFPPSDEQLKSGTASVVCLLNNFYPREAKVQWKVDNALQSGNSQESVTEQDSKDSTYSLSSTLTLSKADYEKHKVYACEVTHQGLSSPVTKSFNRGEC
For B3, in the test with biotinylated hOX40L, the IC50 is 5.99 nM. In addition, the Kd stood at 116 nM with cynomolgus FcRn, 0.136 nM in test [1], 137 nM with human FcRn and 0.0316 nM in test [3]. Besides, the koff stood at 0.0462 s⁻¹ with cynomolgus FcRn, 0.000271 s⁻¹ in test [1], 0.046 s⁻¹ with human FcRn and 0.000152 s⁻¹ in test [3]. The kon with cynomolgus FcRn was 399000 M⁻¹ s⁻¹; in test [1] it was 2e+06 M⁻¹ s⁻¹; in the test with human FcRn, 336000 M⁻¹ s⁻¹; in test [3], 4.8e+06 M⁻¹ s⁻¹. The “RU at 25 nM C1q” value in the test with C1q was found to be 0.2 RU. Further, the “IC50, luminescence (RLU)” value in test [2] is 1.9 nM.

B4: anti-hOX40L antibody clone 118 (antibody, human IgG1, kappa, L234A L235A, V domains shown)
VH: EVQVVESGGGLIQPGGSLRISCAASGFPVSSNYMSWVRQAPGKGLDWVSIIYSRDSTHYADSVKGRFTMSRDNSKNTVYLQMNSLRAEDTAVYYCAGTLTYYYGAGSDYWGQGTLVTVSS
VL: DIQMTQSPSSLSASVGDRVTITCRASQGIRNDLGWYQQKPGKAPKRLIYAASSLQSGVPSRFSGSGSGTEFTLTISSLQPEDFATYYCLQHNSYPWSFGQGTKVEIKR
With B4, in test [1], the Kd worked out at 0.182 nM, the koff turned out to be 2.82e-05 s⁻¹ and the on-rate constant (kon) was 155000 M⁻¹ s⁻¹. Besides, the “IC50, luminescence (RLU)” value in test [2] is 0.912 nM.

B5: anti-hOX40L antibody clone 130 (antibody, human IgG1, kappa, L234A L235A, V domains shown)
VH: EVQLVESGGGLVKPGGSLRLSCAASGFTFSYAWMSWVRQAPGRGLEWVGRIKSETDGGTTDYAAPVKGRFTISRDHSENTLFLQMNSLKTEDTAVYYCTTGSSWNVYFFDFWGQGTLVTVSS
VL: DIQMTQSPSSLSASVGDSVTITCRASQSISNYLNWYHQKPGKAPKLLIYAAYRLQTGVPSRFSGSGSGTDFTLTISSLQPEDFATYYCQQSYSSPLTFGGGTKVEIKR
B5 came in with an IC50 with biotinylated hOX40L of 13 nM. In test [1], the Kd was 0.0873 nM, the koff was determined as 1.14e-05 s⁻¹ and the kon amounted to 131000 M⁻¹ s⁻¹.

B6: anti-hOX40L antibody clone 122 (antibody, human IgG1, kappa, L234A L235A, V domains shown)
VH: EVQLVESGGGLVQPGGSLRLSCAASGFTFSNYWMHWVRQAPGKGLVWVSRINSDGISTRYADSVKGRFTISRDNAKNTLYLQMKSLRAEDTAVYYCVRDFQLELPDYWGQGTLVTVSS
VL: DIQMTQSPSSLSASVGDRVTITCRASQGIRDDLAWYQQKAGKAPKRLIFAASSLQSGVPSRFSGSGSGTEFTLTISGLQPEDFANYYCLQHKSNPFTFGQGTKLEIKR
B6 showed an IC50 in the test with biotinylated hOX40L of 1.57 nM. In test [1], the Kd is < 0.00662 nM, the koff was < 1e-06 s⁻¹ and the association rate constant (kon) was determined as 151000 M⁻¹ s⁻¹.

B7: positive control based on the sequences of the anti-hOX40L antibody amlitelimab (antibody, IgG4, V domains shown)
VH: EVQLVESGGGLVQPGGSLRLSCAASGFTFSNYAMNWVRQAPGKGLEWVSTISGSGGATRYADSVKGRFTISRDNSRNTVYLQMNSLRVEDTAVFYCTKDRLIMATVRGPYYYGMDVWGQGTTVTVSS
VL: DIQMTQSPSSLSASVGDRVTITCRASQSISSYLNWYQQKPGKAPNLLIYAASSLQSGVPSRFSGSGSETDFTLTISSLQPEDFATYYCQQSHSVSFTFGPGTKVDIK
notes: also called Pos; Ctrl
Consider B7, for which the midpoint of inhibition in the test with biotinylated hOX40L, the IC50, lay at 0.62 nM. The EC50 (commonly the concentration needed to bring the measured effect to its halfway point) in test [4] came out at 3.49 nM. Besides, in test [3], the Kd stood at 0.0455 nM, the koff worked out at 0.000119 s⁻¹ and the kon was found to be 2.62e+06 M⁻¹ s⁻¹.

The values above are taken from patent publication US20260217843A1 (APOGEE THERAPEUTICS, published 2026).
